From patent US12269859B2, “Synthetic immune receptors and methods of use thereof” (Angeles Therapeutics, Inc., priority 2016, dated 2025)

B1: 012517-E12 (protein)
chain: MALPVTALLLPLALLLHAARPLEGKPIPNPLLGLDSTGSGEDLKNVFPPEVAVFEPSKAEIAHTQKATLVCLATGFYPDHVELSWWVNGKEVHSGVCTDPQPLKEQPALNDSRYCLSSRLRVSATFWQNPRNHFRCQVQFYGLSENDEWTQDRAKPVTQIVSAEAWGRADCGITSASYHQGVLSATILYEILLGKATLYAVLVSALVLMAMVKRKDSRGRAKRSGSGATNFSLLKQAGDVEENPGPTSMALPVTALLLPLALLLHAARPDIQMTQTTSSLSASLGDRVTISCRASQDISNYLNWYQQKPDGTVKLLIYYTSILHSGVPSRFSGSGSGTDYSLTISNLEQEDFATYFCQQGNTLPWTFGGGTKLEIKAGGGGSGGGGSGGGGSEVQLVESGGGLVKPGGSLKLSCAASGFAFSIYDMSWVRQTPEKRLEWVAYISSGGGTYYPDTVKGRFTISRDNAKNTLYLQMSSLKSEDTAMYYCARHSGYGTHWGVLFAYWGQGTLVTVSATREQKLISEEDGSGIQNPDPAVYQLRDSKSSDKSVCLFTDFDSQTNVSQSKDSDVYITDKCVLDMRSMDFKSNSAVAWSNKSDFACANAFNNSIIPEDTFFPSSDVPCDVKLVEKSFETDTNLNFQNLSVIGFRILLLKVAGFNLLMTLRLWSSRAKRSGSGVKQTLNFDLLKLAGDVESNPGPSRGHMTEYKPTVRLATRDDVPRAVRTLAAAFADYPATRHTVDPDRHIERVTELQELFLTRVGLDIGKVWVADDGAAVAVWTTPESVEAGAVFAEIGPRMAELSGSRLAAQQQMEGLLAPHRPKEPAWFLATVGVSPDHQGKGLGSAVVLPGVEAAERAGVPAFLETSAPRNLPFYERLGFTVTADVEVPEGPRTWCMTRKPGA
B2: 091216-A03 (protein)
chain: MALPVTALLLPLALLLHAARPLEGKPIPNPLLGLDSTGSGEDLKNVFPPEVAVFEPSKAEIAHTQKATLVCLATGFYPDHVELSWWVNGKEVHSGVCTDPQPLKEQPALNDSRYCLSSRLRVSATFWQNPRNHFRCQVQFYGLSENDEWTQDRAKPVTQIVSAEAWGRADCGITSASYHQGVLSATILYEILLGKATLYAVLVSALVLMAMVKRKDSRGRAKRSGSGATNFSLLKQAGDVEENPGPTSTMALPVTALLLPLALLLHAARPDIQMTQSPSSLSASVGDRVTITCRSSQSIVHSVGNTFLEWYQQKPGKAPKLLIYKVSNRFSGVPSRFSGSGSGTDFTLTISSLQPEDFATYYCFQGSQFPYTFGQGTKVEIKRGGGGSGGGGSGGGGSEVQLVESGGGLVQPGGSLRLSCAASGYEFSRSWMNWVRQAPGKGLEWVGRIYPGDGDTNYSGKFKGRFTISADTSKNTAYLQMNSLRAEDTAVYYCARDGSSWDWYFDVWGQGTLVTVSSTREQKLISEEDGSGIQNPDPAVYQLRDSKSSDKSVCLFTDFDSQTNVSQSKDSDVYITDKCVLDMRSMDFKSNSAVAWSNKSDFACANAFNNSIIPEDTFFPSSDVPCDVKLVEKSFETDTNLNFQNLSVIGFRILLLKVAGFNLLMTLRLWSSRAKRSGSGVKQTLNFDLLKLAGDVESNPGPSRGHMTEYKPTVRLATRDDVPRAVRTLAAAFADYPATRHTVDPDRHIERVTELQELFLTRVGLDIGKVWVADDGAAVAVWTTPESVEAGAVFAEIGPRMAELSGSRLAAQQQMEGLLAPHRPKEPAWFLATVGVSPDHQGKGLGSAVVLPGVEAAERAGVPAFLETSAPRNLPFYERLGFTVTADVEVPEGPRTWCMTRKPGA
modifications: Synthetic Immune Receptor (SIR)
B3: 050516-V06 (protein)
chain: MALPVTALLLPLALLLHAARPDIVMTQSPSSLSASVGDRVTITCKASQSVTNDVAWYQQKPGKAPKLLIYYASNRYTGVPSRFSGSGSGTDFTLTISSLQPEDFATYYCQQDYRSPWTFGGGTKVEIKRLEGKPIPNPLLGLDSTGSGEDLKNVFPPEVAVFEPSKAEIAHTQKATLVCLATGFYPDHVELSWWVNGKEVHSGVCTDPQPLKEQPALNDSRYCLSSRLRVSATFWQNPRNHFRCQVQFYGLSENDEWTQDRAKPVTQIVSAEAWGRADCGITSASYHQGVLSATILYEILLGKATLYAVLVSALVLMAMVKRKDSRGRAKRSGSGATNFSLLKQAGDVEENPGPTSMDWIWRILFLVGAATGAHSFEQVQLEESGGGVVRPGRSLRLSCAASGFTFSDYGVNWIRQAPGKGLEWVTIIWGDGRTDYNSALKSRFTVSRNNSNNTLSLQMNSLTTEDTAVYYCVRAPGNRAMEYWGQGVLVTVSSTREQKLISEEDGSGIQNPDPAVYQLRDSKSSDKSVCLFTDFDSQTNVSQSKDSDVYITDKCVLDMRSMDFKSNSAVAWSNKSDFACANAFNNSIIPEDTFFPSSDVPCDVKLVEKSFETDTNLNFQNLSVIGFRILLLKVAGFNLLMTLRLWSSRAKRSGSGVKQTLNFDLLKLAGDVESNPGPSRGHMTEYKPTVRLATRDDVPRAVRTLAAAFADYPATRHTVDPDRHIERVTELQELFLTRVGLDIGKVWVADDGAAVAVWTTPESVEAGAVFAEIGPRMAELSGSRLAAQQQMEGLLAPHRPKEPAWFLATVGVSPDHQGKGLGSAVVLPGVEAAERAGVPAFLETSAPRNLPFYERLGFTVTADVEVPEGPRTWCMTRKPGA
modifications: Synthetic Immune Receptor (SIR)
B4: 081516-I03 (protein)
chain: MALPVTALLLPLALLLHAARPLEGKPIPNPLLGLDSTGSGEDLKNVFPPEVAVFEPSKAEIAHTQKATLVCLATGFYPDHVELSWWVNGKEVHSGVCTDPQPLKEQPALNDSRYCLSSRLRVSATFWQNPRNHFRCQVQFYGLSENDEWTQDRAKPVTQIVSAEAWGRADCGITSASYHQGVLSATILYEILLGKATLYAVLVSALVLMAMVKRKDSRGRAKRSGSGATNFSLLKQAGDVEENPGPTSTMALPVTALLLPLALLLHAARPDIVMTQSPSSLSASVGDRVTITCKASQSVTNDVAWYQQKPGKAPKLLIYYASNRYTGVPSRFSGSGSGTDFTLTISSLQPEDFATYYCQQDYRSPWTFGGGTKVEIKRGGGGSGGGGSGGGGSQVQLEESGGGVVRPGRSLRLSCAASGFTFSDYGVNWIRQAPGKGLEWVTIIWGDGRTDYNSALKSRFTVSRNNSNNTLSLQMNSLTTEDTAVYYCVRAPGNRAMEYWGQGVLVTVSSTREQKLISEEDLGSGTPFPSLAPPIMLLVDGKQQMVVVCLVLDVAPPGLDSPIWFSAGNGSALDAFTYGPSPATDGTWTNLAHLSLPSEELASWEPLVCHTGPGAEGHSRSTQPMHLSGEASTARTCPQEPLRGTPGGALWLGVLRLLLFKLLLFDLLLTCSCLCDPAGPLPSPATTTRLRALGSHRLHPATETGGREATSSPRPQPRDRRWGDTPPGRKPGSPVRAKRSGSGVKQTLNFDLLKLAGDVESNPGPSRSRGHMTEYKPTVRLATRDDVPRAVRTLAAAFADYPATRHTVDPDRHIERVTELQELFLTRVGLDIGKVWVADDGAAVAVWTTPESVEAGAVFAEIGPRMAELSGSRLAAQQQMEGLLAPHRPKEPAWFLATVGVSPDHQGKGLGSAVVLPGVEAAERAGVPAFLETSAPRNLPFYERLGFTVTADVEVPEGPRTWCMTRKPGA
modifications: Polynucleotide encoding a Synthetic Immune Receptor (SIR)
B5: 041216-C05 (protein)
chain: MALPVTALLLPLALLLHAARPDIQMTQSPSSLSASVGDRVTITCRSSQSIVHSVGNTFLEWYQQKPGKAPKLLIYKVSNRFSGVPSRFSGSGSGTDFTLTISSLQPEDFATYYCFQGSQFPYTFGQGTKVEIKRLEGKPIPNPLLGLDSTGSGEDLKNVFPPEVAVFEPSKAEIAHTQKATLVCLATGFYPDHVELSWWVNGKEVHSGVCTDPQPLKEQPALNDSRYCLSSRLRVSATFWQNPRNHFRCQVQFYGLSENDEWTQDRAKPVTQIVSAEAWGRADCGITSASYHQGVLSATILYEILLGKATLYAVLVSALVLMAMVKRKDSRGRAKRSGSGATNFSLLKQAGDVEENPGPTSMDWIWRILFLVGAATGAHSFEEVQLVESGGGLVQPGGSLRLSCAASGYEFSRSWMNWVRQAPGKGLEWVGRIYPGDGDTNYSGKFKGRFTISADTSKNTAYLQMNSLRAEDTAVYYCARDGSSWDWYFDVWGQGTLVTVSSTREQKLISEEDGSGTPFPSLAPPIMLLVDGKQQMVVVCLVLDVAPPGLDSPIWFSAGNGSALDAFTYGPSPATDGTWTNLAHLSLPSEELASWEPLVCHTGPGAEGHSRSTQPMHLSGEASTARTCPQEPLRGTPGGALWLGVLRLLLFKLLLFDLLLTCSCLCDPAGPLPSPATTTRLRALGSHRLHPATETGGREATSSPRPQPRDRRWGDTPPGRKPGSPVRAKRSGSGVKQTLNFDLLKLAGDVESNPGPSRGHMTEYKPTVRLATRDDVPRAVRTLAAAFADYPATRHTVDPDRHIERVTELQELFLTRVGLDIGKVWVADDGAAVAVWTTPESVEAGAVFAEIGPRMAELSGSRLAAQQQMEGLLAPHRPKEPAWFLATVGVSPDHQGKGLGSAVVLPGVEAAERAGVPAFLETSAPRNLPFYERLGFTVTADVEVPEGPRTWCMTRKPGA
modifications: Polynucleotide encoding a Synthetic Immune Receptor (SIR)
B6: 102715-E07 (protein)
chain: MALPVTALLLPLALLLHAARPDIQMTQSPSSLSASVGDRVTITCRASQTIWSYLNWYQQRPGKAPNLLIYAASSLQSGVPSRFSGRGSGTDFTLTISSLQAEDFATYYCQQSYSIPQIFGQGTKLEIKLEGKPIPNPLLGLDSTGSGEDLKNVFPPEVAVFEPSKAEIAHTQKATLVCLATGFYPDHVELSWWVNGKEVHSGVCTDPQPLKEQPALNDSRYCLSSRLRVSATFWQNPRNHFRCQVQFYGLSENDEWTQDRAKPVTQIVSAEAWGRADCGITSASYHQGVLSATILYEILLGKATLYAVLVSALVLMAMVKRKDSRGRAKRSGSGATNFSLLKQAGDVEENPGPTSMDWIWRILFLVGAATGAHSFEQVQLQQSGPGLVKPSQTLSLTCAISGDSVSSNSAAWNWIRQSPSRGLEWLGRTYYRSKWYNDYAVSVKSRITINPDTSKNQFSLQLNSVTPEDTAVYYCAREVTGDLEDAFDIWGQGTMVTVSSTREQKLISEEDGSGIQNPDPAVYQLRDSKSSDKSVCLFTDFDSQTNVSQSKDSDVYITDKCVLDMRSMDFKSNSAVAWSNKSDFACANAFNNSIIPEDTFFPSSDVPCDVKLVEKSFETDTNLNFQNLSVIGFRILLLKVAGFNLLMTLRLWSSRAKRSGSGVKQTLNFDLLKLAGDVESNPGPSRGHMTEYKPTVRLATRDDVPRAVRTLAAAFADYPATRHTVDPDRHIERVTELQELFLTRVGLDIGKVWVADDGAAVAVWTTPESVEAGAVFAEIGPRMAELSGSRLAAQQQMEGLLAPHRPKEPAWFLATVGVSPDHQGKGLGSAVVLPGVEAAERAGVPAFLETSAPRNLPFYERLGFTVTADVEVPEGPRTWCMTRKPGA
modifications: Synthetic Immune Receptor (SIR)

System: target antigen-expressing cell line
Test: Jurkat NFAT-GFP assay, coculture with target cell lines expressing the respective target antigen (summary Table 10A)
Format: cell-based, human
Design: key: The signs +/−, +, 2+ etc. after the name of the cell lines indicate the relative degree of positivity on the Jurkat-NFAT-GFP assay as measured by the % GFP positive cells; +: relative degree of positivity on the Jurkat-NFAT-GFP assay as measured by the % GFP positive cells; 2+: relative degree of positivity on the Jurkat-NFAT-GFP assay as measured by the % GFP positive cells
Conditions: relative % GFP positive cells; for NFAT-GFP ASSAY Positive Cell lines: NALM6: SIR-expressing Jurkat-NFAT-GFP cells cocultured with NALM6; for NFAT-GFP ASSAY Positive Cell lines: RAJI: SIR-expressing Jurkat-NFAT-GFP cells cocultured with RAJI
Method in brief: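 Stable SIR expression in Jurkat-NFAT-GFP cells by lentiviral transfer and puromycin selection; coculture with target cells (E:T approximately 1:2) for 4 to 18 hours; flow cytometric measurement of NFAT-driven GFP; scoring as positive when % GFP-positive cells exceeds that of parental reporter cells.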

Molecule | NFAT-GFP ASSAY Positive Cell lines: NALM6 | NFAT-GFP ASSAY Positive Cell lines: RAJI
B1 | (+/−) | RAJI (+), NALM6
B2 | – | RAJI (+)
B3 | – | RAJI (+/−)
B4 | – | RAJI (+/−)
B5 | (+/−) | RAJI (+/−), NALM6
B6 | – | RAJI (+)
